This note sets out measurements from the Human Domainome abundance scans (Beltran et al. 2025).

± gives the uncertainty stated by the source.

Sequences and labels used below:
B1: CD2-associated protein, residues 271 to 331; numbered along this chain, Q9Y5K6 (parent)
chain: KEYCRTLFAYEGTNEDELTFKEGEIIHLISKETGEAGWWRGELNGKEGVFPDNFAVQINEL

In the series the parent is B1. The experiment in a line: abundance fitness (aPCA) (normalised: wild type 0, dead -1); higher = more abundant; growth selection in yeast, the domain comes from the species named. Conditions: Homo sapiens.
Take T33C: the abundance fitness was -0.163 ± 0.11.
In the case of T33H, the abundance fitness was -0.209 ± 0.12.
As to A36V, the abundance fitness is -0.03 ± 0.064.
As for A36M, the abundance fitness was -0.18 ± 0.14.
For A36K the value was -0.008 ± 0.094.
To R5H belongs -0.461 ± 0.081; to R5F, -0.487 ± 0.083.
As to R5T, the abundance fitness is -0.34 ± 0.073.
For R5N the value was -0.601 ± 0.085.
Take R5Q: the abundance fitness was -0.37 ± 0.33.
Consider A9H, for which the abundance fitness was -0.076 ± 0.084.
To A9I belongs -0.542 ± 0.12; to A9E, -0.09 ± 0.083; to A9L, -0.599 ± 0.057.
Consider A9T, for which the abundance fitness is -0.268 ± 0.059.
Take A9F: the abundance fitness was -0.469 ± 0.13.
To A9K belongs -0.077 ± 0.056; to G41F, -0.949 ± 0.23.
To G41L belongs -0.747 ± 0.07; to G41W, -1.14 ± 0.29.
For G41S the value was -0.71 ± 0.083; for G41M, -1.01 ± 0.17.
As for G41Q, the abundance fitness is -0.657 ± 0.12.
To G41V belongs -1.06 ± 0.17.
As for E32R, the abundance fitness was -0.222 ± 0.049.
For E32Q the value was -0.139 ± 0.058.
To E32K belongs -0.044 ± 0.07; to E32M, -0.307 ± 0.076.
To E32H belongs -0.202 ± 0.049; to E32G, -0.261 ± 0.057; to C4A, -0.591 ± 0.1.
Regarding C4I, the abundance fitness is -0.113 ± 0.12.
For the variant C4M, the abundance fitness was -0.23 ± 0.1.
For C4R the value was -0.62 ± 0.083; for C4T, -0.714 ± 0.12.
As for C4Q, the abundance fitness was -0.9 ± 0.25.
As for T19H, the abundance fitness is -0.252 ± 0.082.
For T19V the value was -0.66 ± 0.074.
Regarding T19N, the abundance fitness was -0.153 ± 0.058.
To T19A belongs -0.249 ± 0.08.
For T19G the value was -0.431 ± 0.13; for T19D, -0.499 ± 0.1; for T19Q, -0.536 ± 0.21.
To S30R belongs -0.419 ± 0.065; to S30W, -0.957 ± 0.22; to S30C, -0.365 ± 0.085.
Turning to S30F, the abundance fitness is -0.967 ± 0.28.
To K1H belongs -0.489 ± 0.32.
To K1N belongs -0.384 ± 0.098; to K1E, -0.083 ± 0.083; to K1Y, -0.656 ± 0.13.
Turning to K1G, the abundance fitness was -0.223 ± 0.056.
Regarding K1L, the abundance fitness is -0.296 ± 0.061.
To K1F belongs -0.337 ± 0.21; to K1R, -0.277 ± 0.074.
Consider E11Y, for which the abundance fitness was -0.19 ± 0.19.
Turning to E11L, the abundance fitness was -0.377 ± 0.06.
As to E11W, the abundance fitness is -0.261 ± 0.078.
For E11K the value was -0.095 ± 0.093; for E11I, -0.164 ± 0.13; for E11D, -0.122 ± 0.13.
To E11V belongs -0.157 ± 0.09; to E11R, -0.263 ± 0.047; to E11T, -0.216 ± 0.093.
To E11C belongs -0.256 ± 0.096; to W38Q, -0.3 ± 0.1; to W38I, -0.361 ± 0.075.
As for G37Y, the abundance fitness is -0.898 ± 0.2.
For G37E the value was -0.368 ± 0.19; for G37P, -0.852 ± 0.2.
Regarding E60D, the abundance fitness was determined as 0.172 ± 0.24.
For E60A the value was -0.05 ± 0.088.
Consider E60M, for which the abundance fitness was -0.42 ± 0.15.
Regarding E60T, the abundance fitness is -0.11 ± 0.18.
Consider E60N, for which the abundance fitness is -0.227 ± 0.21.
For E22I the value was -0.404 ± 0.16.
For E22P the value was -0.061 ± 0.078; for E22W, -1.13 ± 0.45; for E22S, -0.119 ± 0.053.
To E22V belongs -0.171 ± 0.082; to E22T, -0.25 ± 0.091.
In the case of E22N, the abundance fitness is -0.437 ± 0.088.
For P51I, the abundance fitness was -0.49 ± 0.14.
With P51F, the abundance fitness is -0.677 ± 0.38.
For P51R the value was -0.032 ± 0.05; for P51V, -0.974 ± 0.21.
Take P51C: the abundance fitness was -0.923 ± 0.25.
For G48T the value was -1.07 ± 0.15; for G48D, -0.695 ± 0.15; for G48N, -0.998 ± 0.3.
Consider G48Q, for which the abundance fitness was -0.93 ± 0.16.
For G48A the value was -0.65 ± 0.093; for W39K, -0.536 ± 0.13.
To W39L belongs -0.532 ± 0.11; to W39G, -0.615 ± 0.082; to W39R, -0.547 ± 0.06.
As to G12I, the abundance fitness is -0.887 ± 0.23.
As to G12C, the abundance fitness was -0.329 ± 0.091.
To G12A belongs 0.036 ± 0.055.
For G12Y the value was -0.759 ± 0.23; for G12K, -0.224 ± 0.095; for G12L, -0.865 ± 0.089.
G12Q: the abundance fitness was -0.513 ± 0.1.
To G12W belongs -0.471 ± 0.11; to G12N, -0.646 ± 0.14; to G12E, -0.434 ± 0.11.
To L43W belongs -0.605 ± 0.14; to L43F, -0.475 ± 0.091.
To L43R belongs -0.214 ± 0.072.
As to L43N, the abundance fitness was -0.468 ± 0.17.
With L43C, the abundance fitness was -0.26 ± 0.16.
Consider L43P, for which the abundance fitness was -0.701 ± 0.2.
To L43Y belongs -0.294 ± 0.13; to L43T, -0.505 ± 0.096; to A55R, -1.07 ± 0.17.
For A55D the value was -0.671 ± 0.14; for A55T, -0.149 ± 0.093; for A55V, 0.034 ± 0.078.
For the variant N14V, the abundance fitness is -0.421 ± 0.089.
For N14F, the abundance fitness was -0.336 ± 0.13.
With N14S, the abundance fitness was -0.024 ± 0.061.
To N14T belongs -0.041 ± 0.072; to N14A, -0.023 ± 0.078; to N59L, -0.501 ± 0.095.
For N59S the value was 0.009 ± 0.08.
To N59Y belongs -0.332 ± 0.26; to N59D, -0.145 ± 0.13.
With N59E, the abundance fitness was -0.05 ± 0.12.
Consider N59M, for which the abundance fitness is -0.426 ± 0.12.
Turning to G34F, the abundance fitness is -0.491 ± 0.13.
To G34S belongs -0.014 ± 0.083.
To G34C belongs -0.064 ± 0.18.
For G34R the value was -0.26 ± 0.078; for G34K, 0.048 ± 0.098.
With Q57F, the abundance fitness is -0.295 ± 0.18.
For Q57V the value was -0.058 ± 0.048.
To Q57K belongs -0.188 ± 0.074; to Q57W, -0.532 ± 0.095; to Q57S, -0.182 ± 0.072.
For Q57H, the abundance fitness was -0.051 ± 0.15.
For L28E the value was -0.738 ± 0.16; for L28A, -0.812 ± 0.2; for L28T, -0.441 ± 0.086.
To L28R belongs -0.706 ± 0.064; to L28M, -0.482 ± 0.073.
Take L28C: the abundance fitness was -0.676 ± 0.078.
To L28W belongs -0.871 ± 0.11; to H27I, -0.297 ± 0.18.
As to H27L, the abundance fitness was -0.079 ± 0.064.
For H27T the value was 0.04 ± 0.072; for H27G, -0.09 ± 0.064; for H27K, 0.031 ± 0.087.
H27P: the abundance fitness is -0.428 ± 0.12.
To T13Y belongs -0.257 ± 0.1.
For T13R the value was 0.042 ± 0.053; for T13I, -0.183 ± 0.15; for V56S, -0.243 ± 0.086.
To V56G belongs -0.173 ± 0.18; to V56H, -0.317 ± 0.18; to V56F, -0.456 ± 0.12.
For the variant V56I, the abundance fitness is -0.327 ± 0.17.
For V56E the value was 0.003 ± 0.2; for V56T, 0.033 ± 0.11.
For E47G the value was -0.479 ± 0.081; for E47W, -0.601 ± 0.15.
To E47Y belongs -0.171 ± 0.059; to E47I, 0.053 ± 0.061.
